Measured values reported in US20210340209A1 (IMMUNE TARGETING, published 2021).

Target: T1, human IL-2 mutant V1 (human, UniProt P60568 21-153)
T1 construct: Mutein found by yeast surface display screen; the ELISA format (any tag or Fc) is not described; also called IL-2 mutein
T1 chain: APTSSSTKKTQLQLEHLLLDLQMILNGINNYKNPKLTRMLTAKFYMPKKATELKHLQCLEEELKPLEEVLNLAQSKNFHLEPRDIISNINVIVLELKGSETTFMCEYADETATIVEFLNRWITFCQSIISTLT
Test: ELISA

B1: human IL-2R beta (receptor)
chain: AVNGTSQFTCFYNSRANISCVWSQDGALQDTSCQVHAWPDRRRWNQTCELLPVSQASWACNLILGAPDSQKLTTVDIVTLRVLCREGVRWRVMAIQDFKPFENLRLMAPISLQVVHVETHRCNISWEISQASHYFERHLEFEARTLSPGHTWEEAPLLTLKQKQEWICLETLTPDTQYEFQVRVKPLQGEFTTWSPWSQPLAFRTKPAALGKDT
notes: Soluble IL-2R beta reagent, titrated on yeast and used in ELISA; also called IL-2 receptor beta
  fold stronger binding than to IL-2 WT: ~20 times
